Source: the DeepSol protein solubility set

Assay: soluble on expression in E. coli; label from the status in PepcDB or PDB records

Sequence | soluble on expression in E. coli
MGSDKIHHHHHHMKEISVVLVGIGGYGNKYVEYILREGREKGVRISGVVDPYPQNSRFYDELRSLNVPMYNTLEEFYSHHTADLAIISSPIHYHCEQTCTAVRNGSHVLCEKPAAATVKEVKKMIECREKYGKIVAIGYQWSYNPAVLKLKEDILAGKFGKPVLFKTLVLWPRDTAYYRRNSWAGKLKVNNRWVLDSVAGNATAHFLHNMLFLLGEKMEESAYPESMVAELYRANDIESFDTCALKMTVRKIPVLFFATHAVKERKGPVFEYRFEKARVICNYPEYPESEENLLVVYEDGRKEIYGPTDHGSMRKLWVVVDAARGRKEFICTLESAMAHTIAINGAHVSMKEIQDFPTELKRVEGEPPMIWVEGLKEAMERAYEEEKIFSELNLPWAKRGEEVKLENFEGLEGEITC | not soluble
MGVHVVLYQPEIPANTGNIARTCAATGTELHLIRPLGFSTDDKMLKRAGLDYWQHVKITYYDSIEEFYEKNKDGEFFYLTKYGEKAHTAFDYSKREKDYYFVFGRETNGLPANVIEENFDHCLRIPMTDKVRSLNLSNTAAILIYEAFRQQNYPGLDLEIVY | not soluble
MKFPGKRKSKHYFPVNARDPLLQQFQPENETSAAWVVGIDQTLVDIEAKVDDEFIERYGLSAGHSLVIEDDVAEALYQELKQKNLITHQFAGGTIGNTMHNYSVLADDRSVLLGVMCSNIEIGSYAYRYLCNTSSRTDLNYLQGVDGPIGRCFTLIGESGERTFAISPGHMNQLRAESIPEDVIAGASALVLTSYLVRCKPGEPMPEATMKAIEYAKKYNVPVVLTLGTKFVIAENPQWWQQFLKDHVSILAMNEDEAEALTGESDPLLASDKALDWVDLVLCTAGPIGLYMAGFTEDEAKRKTQHPLLPGAIAEFNQYEFSRAMRHKDCQNPLRVYSHIAPYMGGPEKIMNTNGAGDGALAALLHDITANSYHRSNVPNSSKHKFTWLTYSSLAQVCKYANRVSYQVLNQHSPRLTRGLPEREDSLEESYWDR | not soluble
MGSDKIHHHHHHMSDKTDSSQGKSEPESSENNNDKTSVDNSVKSPLTIAISKNTKILALFAIACTLAVSLVSELTKDRIKVQEQQQLLRTLHSIIEPSRYDNDIANDCIMMSAPELGSNKVKTAYIARKAGQVVAVAITSTAPQGYNGNIDFIMAINNDGSVSGVRVLKHQETPGLGDKIEIRKSDWIKSFTGKRILSEDDSRWAVTKDNGMFDQFTGATITPRAVVKGVKSTLNYFNQHKGSLIPRPNACGEALSTTKSISPISEAANEQ | not soluble
MAHHHHHHMWINKIGNKSASFINHKHFHPGNIKNLERVWLAEENEKKRKEEEEKYLKKREEQYKLYELKKQLRKNEEENKNDVHNILYDINNELKKENSFKKKILHNSISNETTPNENIVNKILIRSKYDEDIFLKNHRSIYGSYYDKEKNKWGFKCCTNIDKNSKCTNNTNCSYNLNNNLIKKDLTKSKNKKKKKKKLIVDNSITAVLNKI | not soluble
MGSDKIHHHHHHMNINFENHGGNIEKEARQLGLSTENIIDASASIVPFKLPKKLNNYLINSIKNRSIRSYPDSSYFEVRNAISKWHNIEPSMILPGNGASELFTWAARDASLNGISSLPSPGFGDYQRALKCWNATYVHNPLPLSWTNNNPQSFPIEPKANVLWITNPHNPTGQLWSRSSIENLLANYKLVICDEAFISLVPGGESQSIIDLTNIYKNLIVIRSLTKFLGIAGLRVGYAVTNSDRLLKWKEIRDPWPVNTLAINATKMIMKDSKMHKKRLNKIHRWVEKEGKWLYQSLSSFSTIKPLPSTTNFQLIKSESSILNLLENLKKRGILLRDCRSFINLDEKWFRISLLKREQNIQIINTLKDYIN | not soluble
MAERTHFMELALVEARSAGERDEVPIGAVLVLDGRVIARSGNRTRELNDVTAHAEIAVIRMACEALGQERLPGADLYVTLEPCTMCAAAISFARIRRLYYGAQDPKGGAVESGVRFFSQPTCHHAPDVYSGLAESESAEILRQF | soluble
MAKAPDVVDLLALAVERGASDLVITVGLPPMLKIDGEFHPTEYEPLTPQETRRLMYALMDEKQQRIFEEEKELDFSFSLPGKGRYRVNVFLQRGSVGGVLRVVPSAVKSFEELGLPKNIAEIAMSPRGLVLVTGPTGSGKSTTLASMIDYINERKACHIVTIEDPIEFFHKHKRAIVNQREIGSDTKSFHKALRSVLRQAPDVILVGEMRDYETIAAAITAAETGHLVMGTLHTNSAPETIDRIVDVFPENQQEQVRVQLSNNLVAVLTQQLLPKAFGGGRVLAYELMIATPAVRALIREGKTHQLRSVIQTGGQYGMITMDACLADLYRRKLITYEMGLARAVDPKEFMRLAGAPEGARR | soluble
MIKIYNGDKLTRQPFFIKLINYLQIHDDVTLRQIKRNFADTEHLERSIEDYVQAGYVLRENKHYYNAFELLENLDGLTLDSQIFVDDQSSIYQDLLALTFETYLSNQTNAALIIEKTDISRDALTLSNYFFKLNENFPLSRKQKPLYHLLGDVNPNYALKYMTTFLLKFWGKDVVKQKRPDIFVQALVLLGYLEQVGKQSYCLKMTFDKEKLIFAS | not soluble
MSLRPTEYIDLHCHLLPGLDDGPQQLAQAVEMARQAVADGIHYVLATPHHLDRRYQNTGLVVERSVAELQAELKRQQIPLTVFAGQEVHLRDDLATALPHLLGIDVGRRYLLLELPHEQVPNYVAQVIFELLQQGTTPVIAHPERNAQIMAQPERLYDLVQQGCLAQLTAGSLVGQFGRAVKSTALELVECGLVQVIASDAHLMARRGFMMRAGYQALARLDSTNPASFAVNARLLLNGDPVVLGEVLRPNQRRKFWLFEGHHHHHH | not soluble
MGSDKIHHHHHHMALEPQIKSAPTPVILIVEPYGGSIRQQNPNLPMVFWDDAALTRGDGIFETLLIRDGHACNVRRHGERFKASAALLGLPEPILEDWEKATQMGIESWYSHPNAGEASCTWTLSRGRSSTGLASGWLTITPVSSDKLAQREHGVSVMTSSRGYSIDTGLPGIGKATRGELSKVERTPAPWLTVGAKTLAYAANMAALRYAKSNGFDDVIFTDGDRVLEGATSTVVSFKGDKIRTPSPGGDILPGTTQAALFAHATEKGWRCKEKDLSIDDLFGADSVWLVSSVRGPVRVTRLDGHKLRKPDNEKEIKALITKALG | not soluble
MTYLVTGATGGLGGYALNYLKELVPMSDIYALVRSKEKGADLKAAGFNIRVGDYSDAESMKQAFAGIDRVLFVSGAPGNRQVEHENVINAAKKAGVSYIAYTSFAGADKSTSALAEDHFFTEKVIEKSGIAHTFLRNNWYFENEMPMIGGALSAGKFVYAAENGKVGWALKREYAEVAAKAVAGAGFPEILELSGPLMTYEELTKALKEATGKDFDVISSDDKGFVENLVSVGLPQPVAEMFLSFQHDIKNDQLDVTSDDFEKALGKPLTNRVDALRELLKLEHHHHHH | soluble
DESSKNGLMDMVSQGLNAESSPLTELLTSQLPVSTEQAAGGSSALIALAQSQLSQQNSTELQSLIPGLSNLKGAQSLLGNIESLSAVQSAFN | not soluble
MSITLRTYIFLDALQPQLATFIGKTARGFLPVPGQASLWVEIAPGIAINRVTDAALKATKVQPAVQVVERAYGLLEVHHFDQGEVLAAGSTILDKLEVREEGRLKPQVMTHQIIRAVEAYQTQIINRNSQGMMILPGESLFILETQPAGYAVLAANEAEKAANVHLVNVTPYGAFGRLYLAGSEAEIDAAAEAAEAAIRSVSGVAQESFRDR | not soluble
SLKGSSAQVLVVEGEQGLNNDLSHSLEANGYLVTQCFNGKALQKEGLDDQLDLIILGATSESTEADLIQSIVMLREAVSTPIMLLGQKDCVESRIAFYTAGVDDYLTKPVNFSEFLIRVAVILKRVCSDSQMPKHADLLSGLDFEMDKRKGCIRSDEVELLLTPVEFKLLWALVSSGGRVLTKAFLYRNVLNRDFVQHDRSVDVHISRLRAKLSGVGVDTSRLETVHGEGYCYKEG | soluble
MGSSHHHHHHSSGLVPRGSHMKARELDVPGAWEITPTIHVDSRGLFFEWLTDHGFRAFAGHSLDVRQVNCSVSSAGVLRGLHFAQLPPSQAKYVTCVSGSVFDVVVDIREGSPTFGRWDSVLLDDQDRRTIYVSEGLAHGFLALQDNSTVMYLCSAEYNPQREHTICATDPTLAVDWPLVDGAAPSLSDRDAAAPSFEDVRASGLLPRWEQTQRFIGEMRGTGSV | soluble
